Source: patent US20130252821A1, “METHODS AND COMPOSITIONS FOR THE TREATMENT AND DIAGNOSIS OF DISEASES CHARACTERIZED BY VASCULAR LEAK, HYPOTENSION, OR A PROCOAGULANT STATE” (Beth Israel Deaconess Medical Center, Inc., priority 2005, published 2013)
Entries after “also recorded” stand apart in the source; their conditions may differ.

Key:
Format in all cases: cell-based, human
Tie2 = Tie2 phosphorylation by Ang-1 in HMVEC-L; conditions: Ang-1 100 ng/ml, 15 minutes
Experimental: (§1) We lysed HMVEC-L with Triton buffer (50 mM Tris-HCl pH 8.0, 150 mM NaCl, 1% Triton X 100, and 5 mM EDTA) supplemented with protease inhibitors (Roche Diagnostics), 1 mM NaF and 1 mM Na3VO4, adjusting protein concentration by BCA protein assay (Pierce) and incubated 200 μg of total protein with anti-Tie2-Ab (clone Ab33, Upstate, Lake Placid, N.Y.) or p190RhoGAP Ab (Transduction laboratory, Lexington, Ky.) for 3 hours, followed by incubation with protein A sepharose (Zymed, San Francisco, Calif.) for 2 hours at 4° C. After washing the beads, proteins were eluted by heating in SDS-sample buffer and detected by immunoblotting with anti-phospho-tyrosine (clone 4G10, Upstate), anti-Tie-2 Ab, or anti-p190RhoGAP Ab.

HMVEC-L = experiment: Immunohistochemistry of HMVEC-L (F-actin, MLC-P, VE-cadherin)
Experimental: HMVEC-L were grown to confluent on glass coverslips coated with 0.1% gelatin (Attachment factor, Cascade Biologics, Portland, Oreg.) in 5% FBS/EGM2. […] We used rhodamine phalloidin (Molecular Probe) for F-actin staining and TOPRO®-3-iodine (Molecular Probe) for nuclear staining. Fluorescence images were obtained using a Bio Rad MRC confocal fluorescence microscope.

HMVEC-L monolayers = experiment: Immunostaining of HMVEC-L bathed in HD IL-2 patient serum; conditions: 1:10 serum for 30 minutes, then Ang-1 100 ng/mL
Experimental: Human pulmonary arterial microvascular endothelial cells (HMVECs) (Cambrex Bio Science, Walkersville, Md., United States) cells were cultured in EBM-2 (Cambrex Bio Science) supplemented with 5% fetal bovine serum (FBS) and growth factors according to the manufacturer's instructions. Serum starvation was performed by incubation in 0.25% FBS/EBM-2 for 24 hours.
HMVECs were grown to confluence on glass coverslips coated with 1% gelatin. The cells were fixed for 10 minutes in 4% paraformaldehyde in PBS, and incubated for 5 min in 0.5% Triton X-100 in PBS. After blocking, the monolayers were processed for staining with anti-VE-cadherin monoclonal antibody (BD Biosciences Pharmingen, San Diego, Calif., United States) and Alexa Fluor® 488 goat anti-mouse IgG, rhodamine phalloidin (Molecular Probes, Eugene, Oreg., […]) for F-actin staining and TOPRO-3-iodine (Molecular Probes) for nuclear staining. Fluorescence images were obtained using a Bio Rad MRC confocal fluorescence microscope. For experiments using cells treated with serum from patients, serum Ang-2 concentration was first measured by ELISA. Then, patient serum was diluted to 10% with EBM-2 and filtered with low-protein-binding PVL) F membrane (0.22 lm Millipore) prior to application on EC monolayers.

RhoA = experiment: Rho activity assay (pull-down) in HMVEC-L
Experimental: (§2) These were performed and quantified using the commercially available kit according to the manufacturer's instruction (Cytoskeleton, Denver, Colo.). After signal starvation, HMVEC-L were treated with vehicle, Ang-1 (100 ng/ml) with or without inhibitor for the indicated time and harvested with lysis buffer. Following a brief centrifugation to remove cell debris, lysates from the cells containing equivalent protein concentrations were incubated for 60 minutes with 40 μL slurry of a GST-fusion protein composed of Rac1 or RhoA effector proteins coupled to agarose beads. After washing with lysis buffer, samples were subjected to immunoblotting and detected with anti-Rac1 or anti-RhoA antibody (Santa Cruz Biotechnology, Santa Cruz, Calif.). Whole cell lysates were also run to determine the total amount of Rac1 or RhoA protein.

p190RhoGAP = p190RhoGAP phosphorylation in HMVEC-L; conditions: Ang-1 100 ng/ml
Experimental: as §1

HMVEC-L monolayer = experiment: Measurement of endothelial permeability in vitro (FITC-albumin)
Experimental: Coster Transwell membranes (Corning Inc. Corning, N.Y.) were coated with 0.5% Gelatin and cells were grown until confluence. Vehicle or proteins with FITC-albumin (1 mg/ml) was added to the luminal chamber for 4 hours, and samples were taken from both the luminal and abluminal chamber for fluorometry analysis. The readings were converted with the use of a standard curve to albumin concentration. These concentrations were then used in the following equation to determine the permeability coefficient of albumin (Pa).
[A] is abluminal concentration; t is time in seconds; A is area of membrane in cm^2; V is volume of abluminal chamber; and [L] is luminal concentration. siRNA Transfection: HMVEC-Ls were seeded and control small interfering RNA (siRNA) (Ambion, Ausin, Tex.) or siRNA directed to human p190RhoGAP (5′-[…]-3′ SEQ ID NO: 5 and 5′-[…]-3′ SEQ ID NO: 6) was transfected using SilentFect Lipid reagent (Bio-Rad) according to the manufacturer's instructions. The cells were used for each experiment 3 days after transfection. Almost 90-100% cells were transfected with siRNA (checked by fluorescent labeled siRNA). Down-regulation of p190RhoGAP was verified by immunoblotting. We tested two different siRNA for the experiment and obtained similar results.

Akt = Akt phosphorylation (Western blot) in HMVEC-L; conditions: Ang-1 100 ng/ml, 15 minutes
Experimental: HMVEC-L were washed with ice-cold PBS three times and lysed with ice-cold RIPA buffer (50 mM Tris-HCl pH7.4, 150 mM NaCl, 1% NP-40, 0.5% Sodium Deoxycholate, 0.1% SDS and 1 mM EDTA) supplemented with protease inhibitors (Roche Diagnostics, Indianapolis, Ind.), 1 mM NaF and 1 mM Na3VO4. Lysates were sonicated and centrifuged at 10,000 rpm for 10 minutes at 4° C., and supernatants were collected. Protein concentrations were determined by BCA protein assay with bovine serum albumin as standard (Pierce, Rockford, Ill.). Lysates were electrophoresed using NuPAGE system (Invitrogen Life Technologies, Franklin Lakes, N.J.) and transferred to PVDF membrane and immunoblotted with specific primary antibodies. Binding of primary antibodies was detected using horseradish peroxidase-conjugated secondary antibodies (Amersham Bioscience, Piscataway, N.J.) and SuperSignal WestDura (Pierce) as a chemiluminescence substrate. Primary antibodies were obtained from these suppliers: anti-phospho-Akt Ab (Ser 473), anti-Akt Ab and anti-phospho-myosin light chain 2 (Ser19) Ab were from Cell Signaling Technology; anti-GAPDH Ab was from Chemicon International (Temecula, Calif.).

Rac1 = Rac1 activity assay (pull-down)
Experimental: as §2

B1: Ang-1: Human recombinant angiopoietin-1 purchased from R&D systems; Tie-2 agonist, endogenous Ang-2 antagonist (protein, listed as Homo sapiens)
chain: MTVFLSFAFLAAILTHIGCSNQRRSPENSGRRYNRIQHGQCAYTFILPEHDGNCRESTTDQYNTNALQRDAPHVEPDFSSQKLQHLEHVMENYTQWLQKLENYIVENMKSEMAQIQQNAVQNHTATMLEIGTSLLSQTAEQTRKLTDVETQVLNQTSRLEIQLLENSLSTYKLEKQLLQQTNEILKIHEKNSLLEHKILEMEGKHKEELDTLKEEKENLQGLVTRQTYIIQELEKQLNRATTNNSVLQKQQLELMDTVHNLVNLCTKEGVLLKGGKREEEKPFRDCADVYQAGFNKSGIYTIYINNMPEPKKVFCNMDVNGGGWTVIQHREDGSLDFQRGWKEYKMGFGNPSGEYWLGNEFIFAITSQRQYMLRIELMDWEGNRAYSQYDRFHIGNEKQNYRLYLKGHTGTAGKQSSLILHGADFSTKDADNDNCMCKCALMLTGGWWFDACGPSNLNGMFYTAGQNHGKLNGIKWHYFKGPSYSLRSTTMMIRPLDF
With B1 the Tie2 phosphorylation (Tie2) was “induces Tie2 phosphorylation”, the “cytoskeleton and junction staining compared to control cells” value (HMVEC-L; Ang-1, confluent HMVEC-L, 30 min) was “increase in cortical actin, peripheral MLC-P, and increased VE-cadherin staining at cell junctions” and the “effect on endotoxin-induced structural derangements” value (HMVEC-L; endotoxin plus Ang-1) was “reverted the endotoxin-induced derangements to a normal appearance”. The “rescue of endothelial disruption by high Ang-2 HD IL-2 patient serum” value (HMVEC-L monolayers) was “significant attenuation in stress fiber formation; also recorded: rescue effect of Ang-1 was confirmed”, the RhoA activity (RhoA; HMVEC-L treated with Ang-1) was “decreased 30 minutes after” and the “effect on endotoxin-induced RhoA activity” value (RhoA; co-incubation with Ang-1) was “reversed”. For the same molecule, the “phosphorylation of p190RhoGAP” value (p190RhoGAP) was “induces phosphorylation of p190RhoGAP”, the basal monolayer permeability (HMVEC-L monolayer; Ang-1 100 ng/ml, 4 hours) was “somewhat decreased” and the “effect on endotoxin-induced permeability” value (HMVEC-L monolayer; LPS with Ang-1) was “completely reversed”. For the same molecule, the Akt phosphorylation (Akt) was “induces Akt phosphorylation”, the Rac1 activity (Rac1; HMVEC-L treated with Ang-1) was “increased within 15 minutes” and the “effect on endotoxin-induced change of Rac1 activity” value (Rac1; co-incubation with Ang-1) was “reversed”.
